Results published in PMC6901440.

Tests used:
[1] = biological target: Flag-MLKL T357D/S358E phosphorylation mimic (human) (UniProt Q8NB16); assay: immunoblot of oligomers in cytosol and membrane fractions; HEK-293T cells transfected with Flag-MLKL constructs, with or without RIP3, Bcl-2 or Bcl-2 G145A; Triton X-114 detergent phase separation; oligomers seen by immunoblot (gel conditions not told)
Bcl-2 = Bcl-2 (UniProt P10415); assay: anti-Flag co-IP, Bcl-2 blot; conditions: reference: wild-type MLKL with RIP3; sites T357,S358

Flag-MLKL T357D/S358E phosphorylation mimic (human), sequence (Q8NB16 whole entry T357D/S358E): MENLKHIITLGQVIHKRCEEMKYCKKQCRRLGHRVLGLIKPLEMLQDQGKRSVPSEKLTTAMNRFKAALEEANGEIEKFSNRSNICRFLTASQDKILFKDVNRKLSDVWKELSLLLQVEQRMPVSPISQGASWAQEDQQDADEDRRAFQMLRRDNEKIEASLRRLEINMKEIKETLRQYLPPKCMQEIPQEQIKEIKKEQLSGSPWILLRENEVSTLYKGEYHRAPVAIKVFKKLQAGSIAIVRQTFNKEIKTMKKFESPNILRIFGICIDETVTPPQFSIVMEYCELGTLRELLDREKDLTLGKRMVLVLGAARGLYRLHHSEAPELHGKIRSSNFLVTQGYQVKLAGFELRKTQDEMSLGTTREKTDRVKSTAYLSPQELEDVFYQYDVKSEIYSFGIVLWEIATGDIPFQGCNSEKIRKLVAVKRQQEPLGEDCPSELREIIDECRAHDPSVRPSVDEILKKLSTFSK
Bcl-2 (transfected, HEK-293T), sequence (P10415 whole entry): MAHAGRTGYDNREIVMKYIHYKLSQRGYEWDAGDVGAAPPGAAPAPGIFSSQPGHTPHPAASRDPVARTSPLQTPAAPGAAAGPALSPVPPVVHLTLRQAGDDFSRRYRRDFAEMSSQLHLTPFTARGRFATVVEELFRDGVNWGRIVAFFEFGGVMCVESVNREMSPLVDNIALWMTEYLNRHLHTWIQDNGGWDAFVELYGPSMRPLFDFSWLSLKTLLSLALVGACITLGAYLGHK

percent decrease of MLKL oligomerization [1]	binding against the reference (Bcl-2)	Substance
30%	–	Bcl-2 (transfected, HEK-293T) (from UniProt P10415 1-239)
–	weaker	MLKL (from UniProt Q8NB16) T357A/S358A with RIP3
